According to publication PMC7021470 (mSphere, 2020):
Read-outs that look alike come from different tables or passages of the source.

How the values were obtained:
[1] = target: E. faecalis metalloprotease GelE (apical supernatants) (Enterococcus faecalis, UniProt Q833V7); conditions: T84 transwell; approximately 500 pM GLP-1 in DMEM-F-12 basolateral; 16 h, 37°C, 5% CO2; ELISA; compared to DMEM-F-12 control; mean ± SD, four independent experiments
Procedure: Growth cultures and assays of T84 cells were performed by methods described previously, with slight modifications ([26]). T84 human colonic epithelial cells (ATCC CCL-248) were propagated in tissue culture-treated T75 flasks (Cellstar), as indicated by the ATCC. When between 90 and 100% confluence, T84 cells were treated with 0.25% trypsin and plated onto 24-well, 3.0-μm polycarbonate membrane transwell filters (catalog no. 3415; Costar) at a density of 8 × 10^4 cells/well.
To prepare bacteria, on the day of the assay E. faecalis strains were subcultured 1% (vol/vol) from an overnight culture into GM17 and grown for 5 h, as described above. Whole-culture (cells plus supernatant) samples were diluted in DMEM–F-12 (Gibco) to a concentration of 1 × 10^7 CFU/ml, and supernatant samples were diluted 50% in DMEM–F-12. All samples were neutralized to a pH of 6.8 to 7 using 3 M NaOH.
A final TEER measurement was taken for each monolayer.

[2] = target: T1, E. faecalis metalloprotease GelE (bacterial supernatants) (Enterococcus faecalis, UniProt Q833V7); conditions: 500 pM recombinant GLP-1; 4 h at room temperature; ELISA; vs GM17 medium control; mean ± SD, n = 4
Excerpt: Two secreted proteases from E. faecalis are well known, the serine protease SprE and the metalloprotease GelE, both of which are regulated by the two-component, quorum-sensing fsr (faecalis system regulator) operon ([9]) (Fig. 2A). We obtained strains of E. faecalis containing null mutations in sprE (TX5243), gelE (TX5264), and fsrB (TX5266), as well as a gelE sprE double mutant (TX5128), all generated in the commonly used wild-type OG1RF E. faecalis strain ([10]).
Supernatants from E. faecalis protease mutants and controls (OG1RF, TX5266 [fsrB mutant], TX5264 [gelE mutant], TX5243 [sprE mutant], and TX5128 [gelE sprE mutant]) were collected from an overnight culture grown in GM17 aerobically at 37°C by centrifugation, as described above.

[3] = target: T1, E. faecalis metalloprotease GelE (bacterial supernatants); type: in vitro ADME; design: The secreted metalloprotease GelE serves E. faecalis by degrading misfolded surface proteins; endogenous in cells; host or cells: Enterococcus faecalis strains OG1RF, 30054A, 30002 (and TX5243 sprE mutant); culture supernatants; conditions: E. faecalis 30054A and 30002 supernatants; 200 pM GLP-1; 30 min at 100°C after incubation; ELISA; n = 2
Procedure: If GelE was targeting the ELISA and not GLP-1, one would expect to see high levels of GLP-1 in a sample heat treated after incubation with GLP-1, ensuring no further degradation by GelE during the ELISA.
Supplementary file : FIG S4 GLP-1-inhibitory activity with heat treatment pre- and postincubation. […] Data were obtained from two independent experiments (n = 2) and are expressed as the mean ± SD. Download FIG S4, PDF file, 0.02 MB.

NCI-H716 cells = assay: GLP-1 secretion screen with bacterial supernatants on NCI-H716 cells (ELISA); type: cell-based, human; conditions: 2 h incubation at 37°C, total GLP-1 by ELISA, medium control = 100%, PMA at 2 μM, mean ± SD, n = 3
Procedure: NCI-H716 (American Type Culture Collection [ATCC] CCL-251) cells were grown in RPMI (ATCC) medium supplemented with 10% (vol/vol) heat-inactivated newborn calf serum (NBCS; Gibco). Cultures were maintained at a concentration of 2 × 10^5 to 8 × 10^5 cells/ml and used at passages 15 to 40 for cell studies. For cell studies, 96-well plates were coated with 100 μl of 10 mg/ml Matrigel (BD Biosciences) for 2 h at room temperature. Following coating, NCI-H716 cells were seeded at a concentration of 1 × 10^5 cells/well in Dulbecco’s modified Eagle’s medium (DMEM) supplemented with 10% (vol/vol) NBCS, as determined by trypan blue staining using a hemocytometer. Two days later, lyophilized bacterial supernatants were resuspended in Krebs buffer (Sigma) containing 0.2% (wt/vol) bovine serum albumin (BSA) and 0.03% (wt/vol) bovine bile and incubated on the NCI-H716 cells at 37°C with 5% CO2. […] Cell viability was monitored using the PrestoBlue cell viability reagent (Thermo Fisher Scientific), following the manufacturer’s instructions.

E. faecalis 30054A = assay: Sensitivity of GLP-1-inhibitory activity to TPEN; type: cell-based, Enterococcus faecalis; conditions: E. faecalis 30054A grown overnight with increasing amounts of TPEN; supernatants incubated with 500 pM GLP-1, 4 h at room temperature; ELISA; n = 3
Excerpt: Supplementary file : FIG S1 Sensitivity of GLP-1-inhibitory activity to TPEN. […] Data were obtained from three (n = 3) independent experiments (replicates 1 to 3) with mean ± SD shown for each replicate (technical variation). Linear regression with R^2 goodness-of-fit value and P value are reported. Download FIG S1, EPS file, 0.1 MB.

[4] = target: T2, E. faecalis metalloprotease GelE (bacterial supernatants) (Enterococcus faecalis, UniProt Q833V7); conditions: 4 h at room temperature; for quantity (%) of substrate remaining after incubation with supernatant, dilution 0.0001x: E. faecalis 30054A supernatant diluted 0.0001x in bacterial culture medium; for quantity (%) of substrate remaining after incubation with supernatant, dilution 0.0001x / quantity (%) of substrate remaining after incubation with supernatant, dilution 0.001x / quantity (%) of substrate remaining after incubation with supernatant, dilution 1x / quantity (%) of substrate remaining after incubation with supernatant, dilution 0.01x / quantity (%) of substrate remaining after incubation with supernatant, dilution 0.1x: recombinant substrate, Luminex (Milliplex) read-out, mean ± SD; for quantity (%) of substrate remaining after incubation with supernatant, dilution 0.0001x / quantity (%) of substrate remaining after incubation with supernatant, dilution 0.001x / degradation of substrate by GelE (in words) / quantity (%) of substrate remaining after incubation with supernatant, dilution 0.01x / quantity (%) of substrate remaining after incubation with supernatant, dilution 0.1x: n = 3; for quantity (%) of substrate remaining after incubation with supernatant, dilution 0.001x: E. faecalis 30054A supernatant diluted 0.001x in bacterial culture medium; for quantity (%) of substrate remaining after incubation with supernatant, dilution 1x: E. faecalis 30054A supernatant, 1x (undiluted), n = 3 independent experiments; for degradation of substrate by GelE (in words): undiluted supernatants of E. faecalis 30054A, 30002, OG1RF, ΔgelE, ΔsprE, S613, Luminex, Fig. 4; for quantity (%) of substrate remaining after incubation with supernatant, dilution 0.01x: E. faecalis 30054A supernatant diluted 0.01x in bacterial culture medium; for quantity (%) of substrate remaining after incubation with supernatant, dilution 0.1x: E. faecalis 30054A supernatant diluted 0.1x in bacterial culture medium
T2 sequence (Q833V7 whole entry, looked up): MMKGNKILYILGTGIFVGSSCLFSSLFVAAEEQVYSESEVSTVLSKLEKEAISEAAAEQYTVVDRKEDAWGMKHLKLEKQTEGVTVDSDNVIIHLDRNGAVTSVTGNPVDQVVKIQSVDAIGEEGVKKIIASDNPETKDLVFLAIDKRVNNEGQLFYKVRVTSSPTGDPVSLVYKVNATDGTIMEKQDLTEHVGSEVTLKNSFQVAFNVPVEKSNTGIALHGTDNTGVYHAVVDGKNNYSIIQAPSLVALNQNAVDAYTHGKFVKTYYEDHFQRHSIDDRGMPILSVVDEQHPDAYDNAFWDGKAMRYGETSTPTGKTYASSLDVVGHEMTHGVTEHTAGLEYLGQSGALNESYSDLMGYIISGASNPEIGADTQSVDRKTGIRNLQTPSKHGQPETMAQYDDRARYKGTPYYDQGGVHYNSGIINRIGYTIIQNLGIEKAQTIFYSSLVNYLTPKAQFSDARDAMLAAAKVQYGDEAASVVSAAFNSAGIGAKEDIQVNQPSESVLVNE
Procedure: To gain a better understanding of the substrate preference of GelE, we also tested the ability of diluted supernatants of E. faecalis 30054A, from 1 to 0.0001×, to degrade the same panel of metabolic substrates (Table 1).
Bacterial supernatants were collected from an overnight culture by centrifugation as described above, diluted in bacterial culture medium as indicated, and incubated with recombinant protein (GenScript; Sigma, Tocris) of each analyte for 4 h at room temperature, followed by storage at –80°C until ready for analyte quantification. The Milliplex multiplex assay was run according to the protocol provided by the manufacturer.

| Molecule | quantity (%) of substrate remaining after incubation with supernatant, dilution 0.0001x [4] | quantity (%) of substrate remaining after incubation with supernatant, dilution 0.001x [4] | quantity (%) of substrate remaining after incubation with supernatant, dilution 1x [4] | degradation of substrate by GelE (in words) [4] | quantity (%) of substrate remaining after incubation with supernatant, dilution 0.01x [4] | quantity (%) of substrate remaining after incubation with supernatant, dilution 0.1x [4] | other results |
| --- | --- | --- | --- | --- | --- | --- | --- |
| CC[C@H](C)[C@H](NC(=O)[C@H](Cc1ccccc1)NC(=O)[C@H](CCC(=O)O)NC(=O)[C@H](CCCCN)NC(=O)[C@H](C)NC(=O)[C@H](C)NC(=O)[C@H](CCC(N)=O)NC(=O)CNC(=O)[C@H](CCC(=O)O)NC(=O)[C@H](CC(C)C)NC(=O)[C@H](Cc1ccc(O)cc1)NC(=O)[C@H](CO)NC(=O)[C@H](CO)NC(=O)[C@@H](NC(=O)[C@H](CC(=O)O)NC(=O)[C@H](CO)NC(=O)[C@@H](NC(=O)[C@H](Cc1ccccc1)NC(=O)[C@@H](NC(=O)CNC(=O)[C@H](CCC(=O)O)NC(=O)[C@H](C)NC(=O)[C@@H](N)Cc1c[nH]cn1)[C@@H](C)O)[C@@H](C)O)C(C)C)C(=O)N[C@@H](C)C(=O)N[C@@H](Cc1c[nH]c2ccccc12)C(=O)N[C@@H](CC(C)C)C(=O)N[C@H](C(=O)N[C@@H](CCCCN)C(=O)NCC(=O)N[C@@H](CCCNC(=N)N)C(N)=O)C(C)C [GLP-1, glucagon-like peptide-1] |  |  |  |  |  |  | GLP-1 in the basolateral compartment, apical 30054A supernatant [1]: 3.1% ± 2.68%; GLP-1 in the basolateral compartment, apical OG1RF supernatant [1]: 1.6% ± 0.46%; GLP-1 level after incubation with OG1RF (wild-type) supernatant [2]: −0.06% ± 0.76%; GLP-1 level after incubation with ΔsprE mutant (TX5243) supernatant [2]: −0.14% ± 0.74%; GLP-1 levels, supernatants heat treated after incubation with GLP-1 [3]: low GLP-1 levels |
| CCCCCCCCCCCCCC(=O)O[C@@H]1[C@@H](C)[C@@]2(O)[C@@H](C=C(CO)C[C@]3(O)C(=O)C(C)=C[C@@H]23)[C@@H]2C(C)(C)[C@]12OC(C)=O [PMA, 4-Phorbol 12 myristate 13-acetate] |  |  |  |  |  |  | GLP-1 compared to the medium controls (NCI-H716 cells): 200% |
| c1ccc(CN(CCN(Cc2ccccn2)Cc2ccccn2)Cc2ccccn2)nc1 [TPEN, N,N,N′,N′-tetrakis(2-pyridylmethyl)ethane-1,2-diamine] |  |  |  |  |  |  | effect on GLP-1 degradation by supernatant (E. faecalis 30054A): reduction in GLP-1 degradation |
| insulin | 99.23 ± 1.33% | 99.97 ± 0.05% | 57.29 ± 7.69% | less striking but still statistically significant |  |  |  |
| interleukin 6 [IL-6] | 95.74 ± 6.94% | 95.75 ± 7.36% | 80.28 ± 24.77% | did not observe consistent degradation | 99.91 ± 0.15% | 99.78 ± 0.37% |  |
| leptin | 97.77 ± 3.87% | 99.78 ± 0.39% | 2.15 ± 0.96% |  | 72.29 ± 1.72% | 7.95 ± 4.72% | quantity (%) of substrate remaining after incubation with supernatant, dilution 0.1x ([4]; listed as leptin): 7.95% ± 4.72% |
| monocyte chemoattractant protein-1 [MCP-1] | 98.33 ± 2.89% | 99.99 ± 0.01% |  | less striking but still statistically significant | 99.92 ± 0.14% | 74.03 ± 44.98% |  |
| tumor necrosis factor alpha [TNFα] | 98.12 ± 1.67% | 99.28 ± 1.25% |  | less striking but still statistically significant | 99.72 ± 0.48% | 87.87 ± 19.41% |  |
